Data taken from patent publication US10729634B2, “Sex hormone-binding globulin for use as a medicament” (FUNDACIÓ HOSPITAL UNIVERSITARI VALL D'HEBRON—INSTITUT DE …, priority 2013, dated 2020).

Test system: shbg-db/db transgenic mice
Experiment: Obese diabetic db/db mice expressing human SHBG (shbg-db/db) compared with db/db
Type: in vivo
Description: To shed light to this issue, the inventors developed a unique mouse model that expresses the human SHBG gene and develops obesity, by crossing the human SHBG transgenic mice with the db/db mice.
The human SHBG transgenic mice is the one disclosed by Jänne et al, “Human Sex-Hormone-Binding Globulin Gen Expression in Transgenic Mice”, Molecular Endocrinology—1998, Vol. No. 12 (1), pp: 123-136.
Briefly, these mice were obtained by microinjecting into the pronuclei of a one-cell mouse embryos, a 4.3 kb portion of a human shbg that comprises the 8 exons of the SHBG plus 0.9 kb 5′ of the translation initiation codon in exon 1 and 0.5 kb 3′ from the polyadenylation sequence in exon 8. The one-cell embryos were obtained superovulating CBA×C57BL6 hybrid females with pregnant mare serum and hCG (Sigma Chemical Co. Mississauga, Canada) and mating them with CBA×C57BL6 males. Female CD-1 mice were used to produce pseudopregnant recipients by mating with vasectomized CD-1 males. Injected embryos were implanted into the pseudopregnant recipient mice using a standard protocol. This human transgenic mice over expresses the human shbg gene in vivo. According to Northern blot analysis, the human shbg transcripts are most abundant in liver and kidney. At the cellular level, the human shbg transgenes are expressed in clusters of hepatocytes located mainly within the periportal region of hepatic lobules and in the epithelial cells lining the proximal convoluted tubules of the kidney.
The db/db mice corresponds to the JAX™ Mice Strain: Diabetic Mice db/db (from Charles River; www.criver.com/en-US/Pages/home.aspx). These mice are characterized by having a point mutation in the leptin receptor. In homozygosis the lack of leptin signaling in the hypothalamus will lead to persistent hyperphagia, obesity, type 2 diabetes, dyslipidaemia and fatty liver. In this mice, diabetes (db), which occurred in an inbred strain of mouse, is inherited as a unit autosomal recessive and is characterized by a metabolic disturbance resembling diabetes mellitus in man. Abnormal deposition of fat at 3 to 4 weeks of age is followed shortly by hyperglycemia, polyuria, and glycosuria.
For performing the assays, mice were maintained under standard conditions with food (Global Diet 2018, Harlan Interfauna Iberica, Barcelona, Spain) and water provided ad libitum and a 12 h light/dark cycle. Experimental procedures were approved by the Institutional Animal Use Subcommittees of Hospital Vall d'Hebron Research Institute and the Universitat Autònoma Barcelona.
The mice for experiments in next illustrated assays were of the following four genotypes: • db/+, which means lean mice heterozygous at point mutation in the leptin receptor. • db/db, which means that the mice were homozygous for the point mutation in the leptin receptor and behave a phenotype of persistent hyperphagia, obesity, type 2 diabetes, dyslipidaemia and fatty liver, • shbg-db/+ lean mice heterozygous at point mutation in the leptin receptor and expressing the shbggene • shbg-db/db, which means that the they over-expressed shbg gene in the manner disclosed above and at the same time they had the phenotype of the homozygous db/db mice in relation to hyperphagia, obesity, type 2 diabetes, dyslipidaemia and fatty liver.
Histology and Immunohistochemistry: For morphological studies, 3 animals of each genotype (db/+, db/db, shbg4-db/+ and shbg4-db/db) were used. Livers and adipose tissue were fixed in 4% paraformaldehyde for 24 h and embedded in paraffin. Serial 5-μm thick sections were used for histological examination and stained with hematoxylin-eosin (H&E).
For immunohistochemistry studies, the paraffin sections were de-waxed and incubated at high power in a microwave oven for 10 min in citrate buffer, pH 6.6. The sections were then cooled at room temperature for 20 min and treated with a 0.03% hydrogen peroxide solution for 7 min, prior to incubation (overnight at 4° C.) with rabbit antibodies against F4/80. […]

[1] = adipose tissue, shbg-db/db vs db/db mice
[2] = shbg-db/db vs db/db mice, 4 to 12 weeks of age
[3] = shbg-db/db vs db/db mice, relative to 18S mRNA
[4] = shbg-db/db vs db/db mice, sacrificed at 6 weeks
[5] = shbg-db/db vs db/db mice, western blot

B1: SHBG: native human protein purified from healthy human serums (included SEQ ID NO: 1); in mice and HepG2 expressed from human shbg transgene/vector (protein, listed as Homo sapiens)
chain: MESRGPLATSRLLLLLLLLLLRHTRQGWALRPVLPTQSAHDPPAVHLSNGPGQEPIAVMTFDLTKITKTSSSFEVRTWDPEGVIFYGDTNPKDDWFMLGLRDGRPEIQLHNHWAQLTVGAGPRLDDGRWHQVEVKMEGDSVLLEVDGEEVLRLRQVSGPLTSKRHPIMRIALGGLLFPASNLRLPLVPALDGCLRRDSWLDKQAEISASAPTSLRSCDVESNPGIFLPPGTQAEFNLRDIPQPHAEPWAFSLDLGLKQAAGSGHLLALGTPENPSWLSLHLQDQKVVLSSGSGPGLDLPLVLGLPLQLKLSMSRVVLSQGSKMKALALPPLGLAPLLNLWAKPQGRLFLGALPGEDSSTSFCLNGLWAQGQRLDVDQALNRSHEIWTHSCPQSPGNGTDASH
[1]
  Adiponectin mRNA levels: increased significantly
  IL6 mRNA levels: reduced in shbg-db/db mice when compared with db/db mice but it was not statistically significant
  IL-1β mRNA levels: significantly reduced
  TNF-α mRNA levels: significantly reduced
Genotype shbg-db/+ (lean mice expressing human SHBG), db/+ control 74.99 ± 4.17
  Triglyceride amounts in liver: 88.88 ± 12.84 Nmol TGs/tissue g
Genotype shbg-db/db (obese mice expressing human SHBG), db/db control 421.92 ± 58.6
  Triglyceride amounts in liver: 314.64 ± 41.37 Nmol TGs/tissue g
Liver and adipose tissue, shbg-db/db vs db/db mice
  macrophage infiltration (F4/80 immunohistochemistry): less macrophage infiltration in both liver and adipose tissue
shbg-db/db vs db/db mice
  hepatic lipogenesis: Reducing Hepatic Lipogenesis
  inflammation: Lowers Inflammation
[2]
  blood glucose levels: not Blood Glucose Levels
  weight gain (body weight): Reduces Weight Gain
shbg-db/db vs db/db mice, liver histology
  hepatic steatosis: Reduces
[3]
  liver ACC mRNA levels: significantly lower
  liver FAS mRNA levels: significantly lower
[4]
  adipocyte size: Reduces
  adipose tissue weight (VAT): Reduces Adipose Tissue Weight
  liver weight: Reduces Liver Weight
[5]
  liver ACC protein levels: reduced ACC protein levels
  liver FAS protein levels: significantly lower FAS protein levels
